From US20220119534A1 (DRAGONFLY THERAPEUTICS, published 2022) come the findings set out here.

Values joined by “and” are separate entries in the source; they are usually repeats but may differ in a detail not shown here. Equal values may be shown once.

The target in assay [1] is T1, Human CLEC12A expressed on cells (Ba/F3-hCLEC12A, PL21, HL60) (human, UniProt Q5QGZ9 1-265).
T1 sequence: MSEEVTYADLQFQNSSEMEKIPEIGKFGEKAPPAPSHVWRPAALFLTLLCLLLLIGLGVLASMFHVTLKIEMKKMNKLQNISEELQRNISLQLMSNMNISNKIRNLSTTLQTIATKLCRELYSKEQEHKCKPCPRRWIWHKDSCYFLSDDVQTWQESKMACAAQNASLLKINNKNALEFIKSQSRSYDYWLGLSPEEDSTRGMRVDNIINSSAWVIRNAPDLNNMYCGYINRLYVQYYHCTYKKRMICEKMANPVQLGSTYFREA
As to the kind of experiment: cell-based or functional assay.

Assay [2] has as its target T2, Human CLEC12A-His (recombinant, K244 WT) (human, UniProt Q5QGZ9 65-265).
T2 construct: Made in house (Dragonfly Tx); also called hCLEC12A; hCLEC12A-His; not shown: His tag
T2 sequence: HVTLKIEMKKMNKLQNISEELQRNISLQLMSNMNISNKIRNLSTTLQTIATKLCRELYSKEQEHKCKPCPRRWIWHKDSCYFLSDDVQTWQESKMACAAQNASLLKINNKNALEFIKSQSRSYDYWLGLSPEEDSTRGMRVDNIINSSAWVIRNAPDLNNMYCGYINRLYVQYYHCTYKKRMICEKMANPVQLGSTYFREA
Nature of the assay: SPR, two-state fit (kd1); control sample.

In assay [3] the target is T3, mFc-hNKG2D (recombinant mFc-tagged human NKG2D dimer) (human, UniProt P26718 73-216).
T3 construct: extracellular domain; Made in house; not shown: mouse Fc tag
T3 sequence (looked up): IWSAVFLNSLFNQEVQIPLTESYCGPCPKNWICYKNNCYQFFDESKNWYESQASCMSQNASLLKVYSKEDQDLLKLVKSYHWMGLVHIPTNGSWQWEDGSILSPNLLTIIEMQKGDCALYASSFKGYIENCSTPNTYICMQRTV
Nature of the assay: SPR 37C, mFc-hNKG2D captured, 1:1 kinetic fit.

The target in a further assay is T4, Human CD64 (FcγRI) (human, UniProt P12314 16-288, biotinylated).
T4 construct: Bought recombinant receptor; also called hFcγRI; Human FcγRI
T4 sequence (P12314 16-288 limits assumed): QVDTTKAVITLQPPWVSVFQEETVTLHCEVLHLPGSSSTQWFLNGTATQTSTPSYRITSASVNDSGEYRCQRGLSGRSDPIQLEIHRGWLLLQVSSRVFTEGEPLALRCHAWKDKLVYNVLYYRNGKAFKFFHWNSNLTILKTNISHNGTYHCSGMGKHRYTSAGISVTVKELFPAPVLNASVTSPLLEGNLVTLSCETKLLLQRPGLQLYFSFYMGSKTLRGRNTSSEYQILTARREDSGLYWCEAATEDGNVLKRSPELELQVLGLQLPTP
Nature of the assay: SPR 25C, biotinylated hCD64 captured on CAP chip.

Assay [4] concerns the target T2, Human CLEC12A-His (recombinant, K244 WT). As to the kind of experiment: SPR, two-state fit (kd1); after pH 5.0, 40C, 2 wks. On the technique in general: Surface plasmon resonance follows binding to a sensor surface in real time, without labels.
The target in another assay is T5, Human CD16a F158 (human, UniProt P08637 17-208, biotinylated).
T5 construct: Bought recombinant receptor; also called hFcγRIIIa F158
T5 sequence (P08637 17-208 limits assumed): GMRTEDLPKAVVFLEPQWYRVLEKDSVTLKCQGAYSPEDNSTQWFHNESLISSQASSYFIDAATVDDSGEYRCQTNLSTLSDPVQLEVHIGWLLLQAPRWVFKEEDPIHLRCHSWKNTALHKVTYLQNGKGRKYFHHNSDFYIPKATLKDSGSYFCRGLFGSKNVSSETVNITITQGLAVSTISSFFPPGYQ
As to the kind of experiment: SPR, steady state fit.

For the next assay, the target named is T6, Cynomolgus CD16 (cynomolgus monkey, UniProt Q8SPW2 17-208, biotinylated).
T6 construct: Bought recombinant receptor; also called cFcγRIII; Cynomolgus FcγRIII
T6 sequence (Q8SPW2 17-208 limits assumed): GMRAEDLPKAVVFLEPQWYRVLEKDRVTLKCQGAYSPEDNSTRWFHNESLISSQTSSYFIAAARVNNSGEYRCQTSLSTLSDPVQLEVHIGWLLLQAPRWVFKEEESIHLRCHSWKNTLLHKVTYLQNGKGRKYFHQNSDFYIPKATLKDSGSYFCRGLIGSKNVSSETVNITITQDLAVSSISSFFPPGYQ
As to the kind of experiment: SPR, steady state fit.

Another assay has as its target T7, mFc-hNKG2D (human, UniProt P26718 73-216).
T7 construct: extracellular domain; Recombinant mFc-tagged NKG2D dimer, made in house; also called human NKG2D; not shown: mouse Fc tag
T7 sequence (looked up): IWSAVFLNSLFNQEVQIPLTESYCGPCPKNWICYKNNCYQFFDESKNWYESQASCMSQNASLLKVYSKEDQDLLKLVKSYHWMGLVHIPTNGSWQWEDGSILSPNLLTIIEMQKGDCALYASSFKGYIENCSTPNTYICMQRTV
As to the kind of experiment: SPR; control sample (HST pH 6.0 study).

Another assay has as its target T8, Human CD16a V158 (human, UniProt P08637 17-208, biotinylated).
T8 construct: Bought recombinant receptor; also called hCD16a (V158); hFcγRIIIa V158
As to the kind of experiment: SPR; control sample (HST pH 6.0 study).

The target in the next assay is T9, Human FcRn (human, UniProt P55899 24-297; P61769 21-119).
T9 construct: Bought recombinant receptor; also called hFcRn
T9 sequence (P55899 24-297 limits assumed, chain 1 of 2): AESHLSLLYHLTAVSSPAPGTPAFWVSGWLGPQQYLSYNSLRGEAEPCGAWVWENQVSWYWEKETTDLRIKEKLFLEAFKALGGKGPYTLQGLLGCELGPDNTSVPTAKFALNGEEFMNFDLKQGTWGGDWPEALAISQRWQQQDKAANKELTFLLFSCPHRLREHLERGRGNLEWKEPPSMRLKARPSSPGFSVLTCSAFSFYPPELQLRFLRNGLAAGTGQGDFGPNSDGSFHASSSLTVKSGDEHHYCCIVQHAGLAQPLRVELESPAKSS
T9 sequence (P61769 21-119 limits assumed, chain 2 of 2): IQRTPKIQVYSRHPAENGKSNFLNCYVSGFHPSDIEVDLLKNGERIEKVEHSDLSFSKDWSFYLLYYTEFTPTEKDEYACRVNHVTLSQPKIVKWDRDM
Nature of the assay: SPR, steady state fit; average for AB0192.

In another assay the target is T10, Cynomolgus FcRn (cynomolgus monkey, UniProt Q8SPV9 24-297; Q8SPW0 21-119).
T10 construct: Bought recombinant receptor; also called cFcRn; Cyno FcRn
T10 sequence (Q8SPV9 24-297 limits assumed, chain 1 of 2): as the sequence (P55899 24-297 limits assumed, chain 1 of 2) above, with N39D, E44Q, G99S, S189G, S190N, L217M, S269T counted along it
T10 sequence (Q8SPW0 21-119 limits assumed, chain 2 of 2): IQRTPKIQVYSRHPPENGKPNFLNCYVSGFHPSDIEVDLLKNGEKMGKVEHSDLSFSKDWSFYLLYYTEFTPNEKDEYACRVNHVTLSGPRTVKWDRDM
Nature of the assay: SPR, steady state fit; average for AB0192.

The target in a further assay is T11, BCMA.
T11 chain: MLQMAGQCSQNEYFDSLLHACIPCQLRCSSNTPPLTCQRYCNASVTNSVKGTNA
Nature of the assay: SPR specificity test.

Another assay has as its target HER2. Nature of the assay: SPR specificity test.

What is called koff is a measure of how fast the partners let go of each other. By Kd is commonly meant the constant that tells how readily two partners part at equilibrium. The term kon denotes the second-order rate constant of association.

T8 sequence (P08637 17-208 F176V limits assumed): as the sequence (P08637 17-208 limits assumed) above, with F160V counted along it

B1: AB0089 TriNKET (bispecific antibody, human IgG1, kappa)
chain: QLQLQESGPGLVKPSETLSLTCTVSGFSLTNYGLHWIRQPPGKCLEWIGVIWVGGATDYNPSLKSRVTISVDTSKNQFSLKLSSVQAADTAVYYCAKGDYGDTLDYWGQGTLVTVSSGGGGSGGGGSGGGGSGGGGSDIQMTQSPSSLSASVGDRVTITCHASQNINFWLSWYQQKPGKAPKLLIYEASNLHTGVPSRFSGSGSGTDFTLTISSLQPEDFATYYCQQSHSYPLTFGCGTKLEIKGSDKTHTCPPCPAPELLGGPSVFLFPPKPKDTLMISRTPEVTCVVVDVSHEDPEVKFNWYVDGVEVHNAKTKPREEQYNSTYRVVSVLTVLHQDWLNGKEYKCKVSNKALPAPIEKTISKAKGQPREPRVYTLPPCRDELTKNQVSLTCLVKGFYPSDIAVEWESNGQPENNYKTTPPVLVSDGSFTLYSKLTVDKSRWQQGNVFSCSVMHEALHNHYTQKSLSLSPG
heavy: EVQLVESGGGLVKPGGSLRLSCAASGFTFSSYSMNWVRQAPGKGLEWVSSISSSSSYIYYADSVKGRFTISRDNAKNSLYLQMNSLRAEDTAVYYCARGAPIGAAAGWFDPWGQGTLVTVSSASTKGPSVFPLAPSSKSTSGGTAALGCLVKDYFPEPVTVSWNSGALTSGVHTFPAVLQSSGLYSLSSVVTVPSSSLGTQTYICNVNHKPSNTKVDKKVEPKSCDKTHTCPPCPAPELLGGPSVFLFPPKPKDTLMISRTPEVTCVVVDVSHEDPEVKFNWYVDGVEVHNAKTKPREEQYNSTYRVVSVLTVLHQDWLNGKEYKCKVSNKALPAPIEKTISKAKGQPREPQVCTLPPSRDELTENQVSLTCLVKGFYPSDIAVEWESNGQPENNYKTTPPVLDSDGSFFLYSWLTVDKSRWQQGNVFSCSVMHEALHNHYTQKSLSLSPG
light: DIQMTQSPSSVSASVGDRVTITCRASQGISSWLAWYQQKPGKAPKLLIYAASSLQSGVPSRFSGSGSGTDFTLTISSLQPEDFATYYCQQGVSFPRTFGGGTKVEIKRTVAAPSVFIFPPSDEQLKSGTASVVCLLNNFYPREAKVQWKVDNALQSGNSQESVTEQDSKDSTYSLSSTLTLSKADYEKHKVYACEVTHQGLSSPVTKSFNRGEC
notes: F3' format heterodimer of three chains; human IgG1 Fc with EW-RVT and Y349C/S354C mutations; also called AB0089 Lot AB0089-002; CLEC12A TriNKET AB0089
Regarding B1, in assay [1], the “EC50, KHYG1-CD16aV cytotoxicity assay; after 4 wks 40C in CST pH 7.0” value is 0.16 nM. The “EC50, KHYG1-CD16aV cytotoxicity assay; control sample” value in assay [1] was 0.13 nM. Also, the koff in [2] was 0.0476 s⁻¹; in assay [3] it was 0.141 s⁻¹ and 0.142 s⁻¹ and 0.146 s⁻¹; with Human CD64 (FcγRI), 0.00018 s⁻¹ and 0.00022 s⁻¹ and 0.00019 s⁻¹ and 0.00024 s⁻¹; in assay [4], 0.0427 s⁻¹. The Kd in assay [3] is 872 nM and 892 nM and 880 nM; with Human CD64 (FcγRI), 6.4 nM and 4.7 nM and 4.1 nM and 5.2 nM. In addition, the kon in [3] was 161000 M⁻¹ s⁻¹ and 159000 M⁻¹ s⁻¹ and 166000 M⁻¹ s⁻¹; with Human CD64 (FcγRI), 44000 M⁻¹ s⁻¹ and 46000 M⁻¹ s⁻¹.

B2: AB0192 TriNKET (other)
chain: EVQLVESGGGVVQPGGSLRLSCAASGFTFNAFGMHWVRQAPGKCLEWVAFISSGSTSIYYANTVKGRFTISRDNSKNTLYLQMNSLRAEDTAVYYCARDGYPTGGAMDYWGQGTSVTVSSGGGGSGGGGSGGGGSGGGGSDIQMTQSPSSLSASVGDRVTITCKASQDIYNYLSWFQQKPGKAPKPLIYRANILVSGVPSRFSGSGSGQDYTFTISSLQPEDIATYYCLQFDAFPFTFGCGTKLEIKGSDKTHTCPPCPAPELLGGPSVFLFPPKPKDTLMISRTPEVTCVVVDVSHEDPEVKFNWYVDGVEVHNAKTKPREEQYNSTYRVVSVLTVLHQDWLNGKEYKCKVSNKALPAPIEKTISKAKGQPREPRVYTLPPCRDELTKNQVSLTCLVKGFYPSDIAVEWESNGQPENNYKTTPPVLVSDGSFTLYSKLTVDKSRWQQGNVFSCSVMHEALHNHYTQKSLSLSPG
heavy: EVQLVESGGGLVKPGGSLRLSCAASGFTFSSYSMNWVRQAPGKGLEWVSSISSSSSYIYYADSVKGRFTISRDNAKNSLYLQMNSLRAEDTAVYYCARGAPIGAAAGWFDPWGQGTLVTVSSASTKGPSVFPLAPSSKSTSGGTAALGCLVKDYFPEPVTVSWNSGALTSGVHTFPAVLQSSGLYSLSSVVTVPSSSLGTQTYICNVNHKPSNTKVDKKVEPKSCDKTHTCPPCPAPELLGGPSVFLFPPKPKDTLMISRTPEVTCVVVDVSHEDPEVKFNWYVDGVEVHNAKTKPREEQYNSTYRVVSVLTVLHQDWLNGKEYKCKVSNKALPAPIEKTISKAKGQPREPQVCTLPPSRDELTENQVSLTCLVKGFYPSDIAVEWESNGQPENNYKTTPPVLDSDGSFFLYSWLTVDKSRWQQGNVFSCSVMHEALHNHYTQKSLSLSPG
light: DIQMTQSPSSVSASVGDRVTITCRASQGISSWLAWYQQKPGKAPKLLIYAASSLQSGVPSRFSGSGSGTDFTLTISSLQPEDFATYYCQQGVSFPRTFGGGTKVEIKRTVAAPSVFIFPPSDEQLKSGTASVVCLLNNFYPREAKVQWKVDNALQSGNSQESVTEQDSKDSTYSLSSTLTLSKADYEKHKVYACEVTHQGLSSPVTKSFNRGEC
notes: the condition stands under assay; also called AB0192 Lot AB0192-005
Turning to B2, the Kd with Human CD16a F158 is 773 nM and 634 nM and 693 nM and 620 nM; with Cynomolgus CD16, 203 nM and 205 nM and 204 nM; with mFc-hNKG2D, 588 nM; with Human CD16a V158, 171 nM; in the assay with Human FcRn, 1500 nM; with Cynomolgus FcRn, 1400 nM. Moreover, the koff with mFc-hNKG2D is 0.122 s⁻¹; with Human CD16a V158, 0.0199 s⁻¹. Moreover, the kon in the assay with mFc-hNKG2D stood at 208000 M⁻¹ s⁻¹; in the assay with Human CD16a V158 it was 117000 M⁻¹ s⁻¹.

B3: F3'-1602 TriNKET (other)
chain: QLQLQESGPGLVKPSETLSLTCTVSGFSLTNYGLHWIRQPPGKCLEWIGVIWSGGKTDYNPSLKSRVTISKDTSKNQFSLKLSSVQAADTAVYYCAKYDYDDSLDYWGQGTLVTVSSGGGGSGGGGSGGGGSGGGGSDIQMTQSPSSLSASVGDRVTITCHASQNINFWLSWYQQKPGKAPKLLIYEASNLHTGVPSRFSGSGSGTRFTLTISSLQPEDIATYYCQQSHSYPLTFGCGTKLEIKGSDKTHTCPPCPAPELLGGPSVFLFPPKPKDTLMISRTPEVTCVVVDVSHEDPEVKFNWYVDGVEVHNAKTKPREEQYNSTYRVVSVLTVLHQDWLNGKEYKCKVSNKALPAPIEKTISKAKGQPREPRVYTLPPCRDELTKNQVSLTCLVKGFYPSDIAVEWESNGQPENNYKTTPPVLVSDGSFTLYSKLTVDKSRWQQGNVFSCSVMHEALHNHYTQKSLSLSPG
heavy: EVQLVESGGGLVKPGGSLRLSCAASGFTFSSYSMNWVRQAPGKGLEWVSSISSSSSYIYYADSVKGRFTISRDNAKNSLYLQMNSLRAEDTAVYYCARGAPIGAAAGWFDPWGQGTLVTVSSASTKGPSVFPLAPSSKSTSGGTAALGCLVKDYFPEPVTVSWNSGALTSGVHTFPAVLQSSGLYSLSSVVTVPSSSLGTQTYICNVNHKPSNTKVDKKVEPKSCDKTHTCPPCPAPELLGGPSVFLFPPKPKDTLMISRTPEVTCVVVDVSHEDPEVKFNWYVDGVEVHNAKTKPREEQYNSTYRVVSVLTVLHQDWLNGKEYKCKVSNKALPAPIEKTISKAKGQPREPQVCTLPPSRDELTENQVSLTCLVKGFYPSDIAVEWESNGQPENNYKTTPPVLDSDGSFFLYSWLTVDKSRWQQGNVFSCSVMHEALHNHYTQKSLSLSPG
light: DIQMTQSPSSVSASVGDRVTITCRASQGISSWLAWYQQKPGKAPKLLIYAASSLQSGVPSRFSGSGSGTDFTLTISSLQPEDFATYYCQQGVSFPRTFGGGTKVEIKRTVAAPSVFIFPPSDEQLKSGTASVVCLLNNFYPREAKVQWKVDNALQSGNSQESVTEQDSKDSTYSLSSTLTLSKADYEKHKVYACEVTHQGLSSPVTKSFNRGEC
notes: CLEC12A scFv-Fc, NKG2D A49MI Fab-Fc, human IgG1 Fc; also called AB0237
For B3, the binding result with BCMA and in the assay with HER2 was “no binding (tested: 500 nM)” in each case.
